{"source": "paper PMC6420155", "molecules": {"B1": {"name": "Venus-tagged arrestin-3 A87V base mutant, P32120 G65del (protein)", "chain": "MGEKPGTRVFKKSSPNCKLTVYLGKRDFVDHLDKVDPVDGVVLVDPDYLKDRKVFVTLTCAFRYREDLDVLGLSFRKDLFIANYQVFPPTPNPPRPPTRLQERLLRKLGQHAHPFFFTIPQNLPCSVTLQPGPEDTGKACGVDFEIRAFCAKSLEEKSHKRNSVRLVIRKVQFAPEKPGPQPSAETTRHFLMSDRSLHLEASLDKELYYHGEPLNVNVHVTNNSTKTVKKIKVSVRQYADICLFSTAQYKCPVAQVEQDDQVSPSSTFCKVYTITPLLSNNREKRGLALDGKLKHEDTNLASSTIVKEGANKEVLGILVSYRVKVKLVVSRGGDVSVELPFVLMHPKPHDHIALPRPQSAA"}, "B2": {"name": "Venus-tagged arrestin-3 A87V base mutant, P32120 K313A (protein)", "chain": "MGEKPGTRVFKKSSPNCKLTVYLGKRDFVDHLDKVDPVDGVVLVDPDYLKDRKVFVTLTCAFRYGREDLDVLGLSFRKDLFIANYQVFPPTPNPPRPPTRLQERLLRKLGQHAHPFFFTIPQNLPCSVTLQPGPEDTGKACGVDFEIRAFCAKSLEEKSHKRNSVRLVIRKVQFAPEKPGPQPSAETTRHFLMSDRSLHLEASLDKELYYHGEPLNVNVHVTNNSTKTVKKIKVSVRQYADICLFSTAQYKCPVAQVEQDDQVSPSSTFCKVYTITPLLSNNREKRGLALDGKLKHEDTNLASSTIVKEGANAEVLGILVSYRVKVKLVVSRGGDVSVELPFVLMHPKPHDHIALPRPQSAA"}, "B3": {"name": "Venus-tagged arrestin-3 A87V base mutant, P32120 E157A (protein)", "chain": "B2 chain with E157A, A313K"}, "B4": {"name": "Venus-tagged arrestin-3 A87V base mutant, P32120 F245A (protein)", "chain": "B2 chain with F245A, A313K"}, "B5": {"name": "Venus-tagged arrestin-3 A87V base mutant, P32120 G65P (protein)", "chain": "B2 chain with G65P, A313K"}}, "note": "Numbering of substitutions follows the chain as printed. Numbers in names are those of the source.", "data": [{"target": "T1, M2 muscarinic acetylcholine receptor, C-terminally tagged with Renilla luciferase variant 8, P08172", "T1 chain": "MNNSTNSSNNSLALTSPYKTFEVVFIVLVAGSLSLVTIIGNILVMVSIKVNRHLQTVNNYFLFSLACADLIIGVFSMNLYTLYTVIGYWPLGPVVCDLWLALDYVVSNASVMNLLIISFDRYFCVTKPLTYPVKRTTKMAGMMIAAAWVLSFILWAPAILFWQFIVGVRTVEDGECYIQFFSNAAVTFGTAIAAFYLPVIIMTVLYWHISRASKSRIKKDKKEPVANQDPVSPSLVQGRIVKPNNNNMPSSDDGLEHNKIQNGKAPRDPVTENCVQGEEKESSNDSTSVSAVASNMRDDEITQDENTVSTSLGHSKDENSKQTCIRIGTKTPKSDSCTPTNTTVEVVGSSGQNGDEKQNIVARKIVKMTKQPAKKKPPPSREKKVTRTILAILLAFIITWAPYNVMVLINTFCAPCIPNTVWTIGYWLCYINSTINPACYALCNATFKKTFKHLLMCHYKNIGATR", "assay": "BRET", "conditions": "chain shown with the change; HEK293 arrestin 2/3 KO cells; agonist-induced minus basal BRET; average at 10 and 15 min; parent: est. 0.029; read off a plot", "values": [{"molecule": "B1", "response": 0.019}, {"molecule": "B2", "response": 0.032}, {"molecule": "B3", "response": 0.026}, {"molecule": "B4", "response": 0.031}, {"molecule": "B5", "response": 0.023}]}, {"target": "T2, dopamine D1 receptor, C-terminally tagged with Renilla luciferase variant 8, P21728", "T2 chain": "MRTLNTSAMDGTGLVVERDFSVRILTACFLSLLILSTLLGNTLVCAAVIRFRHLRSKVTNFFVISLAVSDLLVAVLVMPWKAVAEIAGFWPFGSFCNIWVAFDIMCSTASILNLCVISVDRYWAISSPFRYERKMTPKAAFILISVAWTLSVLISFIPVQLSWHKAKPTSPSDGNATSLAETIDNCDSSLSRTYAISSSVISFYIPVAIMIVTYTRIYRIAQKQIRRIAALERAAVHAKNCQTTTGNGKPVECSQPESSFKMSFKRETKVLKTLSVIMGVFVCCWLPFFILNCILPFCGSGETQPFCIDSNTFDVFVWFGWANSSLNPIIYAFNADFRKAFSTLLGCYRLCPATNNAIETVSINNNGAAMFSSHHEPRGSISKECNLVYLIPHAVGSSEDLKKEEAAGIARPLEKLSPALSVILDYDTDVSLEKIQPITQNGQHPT", "assay": "BRET", "conditions": "chain shown with the change; HEK293 arrestin 2/3 KO cells; agonist-induced minus basal BRET; average at 10 and 15 min; parent: est. 0.032; read off a plot", "values": [{"molecule": "B1", "response": 0.019}, {"molecule": "B2", "response": 0.033}, {"molecule": "B3", "response": 0.042}, {"molecule": "B4", "response": 0.042}, {"molecule": "B5", "response": 0.033}]}, {"target": "T3, dopamine D2 receptor (long isoform), C-terminally tagged with Renilla luciferase variant 8, P14416", "T3 chain": "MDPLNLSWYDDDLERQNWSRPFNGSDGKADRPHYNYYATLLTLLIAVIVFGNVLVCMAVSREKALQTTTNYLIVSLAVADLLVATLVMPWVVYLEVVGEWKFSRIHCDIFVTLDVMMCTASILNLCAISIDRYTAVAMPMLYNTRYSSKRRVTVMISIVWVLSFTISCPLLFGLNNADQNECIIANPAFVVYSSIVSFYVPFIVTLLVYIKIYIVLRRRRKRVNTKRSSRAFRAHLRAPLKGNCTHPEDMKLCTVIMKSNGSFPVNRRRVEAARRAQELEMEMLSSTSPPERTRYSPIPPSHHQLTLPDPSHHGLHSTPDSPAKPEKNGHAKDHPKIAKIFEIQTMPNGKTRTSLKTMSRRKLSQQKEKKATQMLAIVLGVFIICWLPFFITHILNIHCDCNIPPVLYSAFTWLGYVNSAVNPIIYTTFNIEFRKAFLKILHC", "assay": "BRET", "conditions": "chain shown with the change; HEK293 arrestin 2/3 KO cells; agonist-induced minus basal BRET; average at 10 and 15 min; parent: est. 0.023; read off a plot", "values": [{"molecule": "B2", "response": 0.025}, {"molecule": "B3", "response": 0.023}, {"molecule": "B4", "response": 0.027}, {"molecule": "B5", "response": 0.019}]}, {"target": "T4, HA-tagged dopamine D2 receptor, P14416", "T4 chain": "T3 chain", "assay": "co-immunoprecipitation (quantified immunoblot)", "conditions": "chain shown with the change; HEK293 arrestin 2/3 KO cells; 10 μM quinpirole; non-specific binding (no HA-D2R) subtracted; parent: est. 8.4; read off a plot", "values": [{"molecule": "B1", "response": 2.7}]}, {"target": "dopamine D2 receptor (long isoform), C-terminally tagged with Renilla luciferase variant 8 (human) (UniProt P14416)", "assay": "FRET or BRET; in-cell BRET in HEK293 arrestin-2/3 KO cells co-transfected with Venus-arrestin-3 (acceptor) and receptor-RLuc8 (donor); 10 uM agonist (carbachol for M2R, isoproterenol for β2AR, dopamine for D1R, quinpirole for D2R), 5 uM coelenterazine h; net BRET (with minus without agonist), average at 10 and 15 min and time course", "conditions": "not given", "units": {"reduction of binding (net BRET) against A87V": "%"}, "values": [{"molecule": "Venus-tagged arrestin-3 ΔG65 (on the A87V background) (from UniProt P32120 1-362) (natural protein)", "reduction of binding (net BRET) against A87V": 80}]}]}
